Laboratory results: patent publication US12416034B2, “Recombinant production of steviol glycosides” (EVOLVA SA, priority 2011, dated 2025)

Experiments:
EUGT11 = test: Inhibition studies of RebD production; assay type: biochemical, Oryza sativa; details: Steviva 500 μg/ml, UDP 500 μM; around 30 μM without any addition
Procedure: Experiments were conducted to determine if factors such as sucrose, fructose, UDP, product (RebD) and impurities in the less pure Stevia extracts raw materials inhibited the extent of the conversion of steviol glycoside substrates to RebD. In a standard reaction mixture, excess of the potential inhibitors (sucrose, fructose, UDP, RebD, or a commercial blend of steviol glycosides (Steviva, Steviva Brands, Inc., Portland, OR)) were added. Following incubation, RebD-production was quantified. […] The RebD that was produced was less than 7 μM. This inhibition can be alleviated in the in vivo or in vitro reactions for RebD production, by including an UDP recycling system to UDP-glucose, either by yeast or by an added SUS (sucrose synthase enzyme) in conjunction with sucrose.

[1] = Denaturation temperature by differential scanning calorimetry (DSC); assay type: physicochemical; details: 6HIS-purified enzymes, 91D2e-b GST-purified
Procedure: To assess the thermal stability of EUGT11 and to compare it with the other UGTs in the steviol glycosylation pathway, denaturation temperatures of the proteins were determined using differential scanning calorimetry (DSC). Use of DSC thermograms to estimate denaturation temperatures, TD, is described, for example, by E. Freire in Methods in Molecular Biology 1995, Vol. 40 191-218. DSC was performed (using 6HIS-purified EUGT11, yielding an apparent TD of 39° C.; while when GST-purified 91D2e-b was used, the measured TD was 79° C. For reference, the measured TD when using 6HIS-purified UGT74G1, UGT76G1 and UGT85C2 was 86° C. in all cases. One of skill in the art will recognize that enzyme immobilization or addition of thermal protectants can be added to the reactions to improve stability of the protein. Non-limiting examples of thermal protectants include trehalose, glycerol, ammonium sulphate, betaine, trimethylamine oxide, and proteins.

[2] = Codon optimized UGT cell lysate assay, 13-SMG as substrate; assay type: biochemical; details: 0.25 mM 13-SMG, 24 hours, 30° C.
Procedure: (§1) The wild-type, DNA 2.0, and GeneArt sequences were assayed for in vitro activity to compare reactivity on substrates in the steviol glycosides pathway. UGTs were inserted in high copy (2p) vectors and expressed from a strong constitutive promoter (GPD1) (vectors P423-GPD, P424-GPD, P425-GPD, and P426-GPD). The plasmids were transformed individually into the universal Watchmaker strain, EFSC301 (described in Example 3 of WO2011/153378) and assays were carried out using cell lysates prepared from equal amount of cells (8 OD units). For the enzymatic reactions, 6 μL of each cell lysate were incubated in a 30 μL reaction with 0.25 mM steviol (final concentration) to test UGT74G1 and UGT85C2 clones, and with 0.25 mM 13-SMG (13SMG) (final concentration) to test 76G1 and 91D2e UGTs. Assays were carried out for 24 hours at 30° C. Prior to LC-MS analysis, one volume of 100% DMSO was added to each reaction, samples were centrifuged at 16000 g, and the supernatants analysed.

[3] = In vitro transcribed and translated UGTs incubated with RebA and UDP-glucose, LC-MS; assay type: biochemical; details: LC-MS chromatograms, FIG. 4
Procedure: In vitro transcription and translation of these genes was performed, and the resulting UGTs incubated with RebA and UDP-glucose. Following incubation, the reactions were analyzed by LC-MS. […] See LC-MS chromatograms in FIG. 4. As shown in the left panel of FIG. 4, UGT91D2e produced a trace amount of RebD when RebA was used as the feedstock.
(§2) EUGT11 was produced by in vitro transcription and translation, and incubated with various substrates in the RebD pathway. Similar experiments were carried out using in vitro transcribed and translated UGT91D2e. […] Compounds 1-3 were identified solely by mass and expected retention time. The numbers shown in FIG. 3 are the average peak height of the indicated steviol glycoside obtained from a LC-MS chromatogram, and, although not quantitative, can be used to compare the activity of the two enzymes. […] Both enzymes were able to convert steviol 19-O-monoglucoside (SMG) to compound 1, with EUGT11 being about ten times more efficient than UGT91D2e at converting 19-SMG to compound 1.
Both enzymes were able to convert RebA to RebD. However, EUGT11 was approximately 30 times better at converting RebA to RebD. Overall, it appears that EUGT11 produces more product than UGT91D2e in all reactions (with similar time, concentrations, temperature, and purity of enzyme) except the conversion of rubusoside to stevioside.

[4] = In vitro transcribed and translated UGTs incubated with steviol, LC-MS; assay type: biochemical
Procedure: as §2

[5] = In vitro transcribed and translated UGTs incubated with rubusoside, LC-MS; assay type: biochemical
Procedure: as §2
The left panel of FIG. 5 contains LC-MS chromatograms of the conversion of rubusoside to stevioside. The right panel of FIG. 5 contains chromatograms of the conversion of rubusoside to stevioside, to compound 2, and to compound 3 (RebE). Conversion of rubusoside to compound 3 requires two consecutive 1, 2-O-glycosylations at the 19- and 13-positions of steviol.

[6] = Screening by LC-MS of E. coli lysates, rubusoside as substrate; assay type: biochemical
Procedure: (§3) To analyze the approximately 1600 mutant clones of UGT91D2e, the E. coli transformants were grown overnight at 30° C. in 1 ml of NZCYM containing ampicillin (100 mg/1) and chloramphenicol (33 mg/1), in 96-well format. The next day, 150 μl of each culture was inoculated into 3 ml NZCYM containing ampicillin (100 mg/1), chloramphenicol (33 mg/1), arabinose 3 mM, IPTG 0.1 mM and ethanol 2% v/v, in 24-well format, and incubated at 20° C. and 200 rpm for ˜20 h. The following day, cells were spun down and pellets were resuspended in 100 μl of lysis buffer containing 10 mM Tris-HCl pH 8, 5 mM MgCl2, 1 mM CaCl2) and complete mini protease inhibitor EDTA-free (3 tablets/100 ml) (Hoffmann-La Roche, Basel, Switzerland) and frozen −80° C. for at least 15 minutes to promote cell lysis. […] In each case, the resulting compounds, stevioside or rebaudioside D (rebD), were measured by LC-MS. Results were analyzed in comparison with the stevioside or rebD produced by the lysates expressing the corresponding controls (91D2e, 91D2e-b, EUGT11 and the empty plasmid). […]
(§4) Half of the 1600 clones and the corresponding controls were assayed for their capacity to glycosylate rubusoside and rebaudiosideA. Stevioside and RebD were quantified by LC-MS. […]

[7] = Screening by LC-MS of E. coli lysates, rebaudioside A as substrate; assay type: biochemical; details: RebA substrate
Procedure: as §3, §4

[8] = Codon optimized UGT cell lysate assay, steviol as substrate; assay type: biochemical; details: 0.25 mM steviol, 24 hours, 30° C.
Procedure: as §1

[9] = tested on: S. cerevisiae strain BY4741; test: Steviol-feeding experiment of S. cerevisiae strain BY4741; assay type: cell-based; details: co-expressed with wild type UGT74G1, steviol feeding
Procedure: Further experiments were conducted to determine if the codon-optimized UGT85C2 could reduce 19-SMG accumulation and increase rubusoside and higher glycosylated steviol glycosides production. The production of 19-SMG and rubusoside were analysed in a steviol-feeding experiment of S. cerevisiae strain BY4741 expressing the wild type UGT74G1 as well as the codon-optimized UGT85C2 from high copy (2p) vectors under strong constitutive promoter (GPD1) (vectors P426-GPD and P423-GPD, respectively). Whole culture samples (without cell removal) were taken and boiled in an equal volume of DMSO for total glycosides levels. Intracellular concentrations reported were obtained by pelleting cells, and resuspending in 50% DMSO to the volume of the original culture sample taken, followed by boiling. The “total” glycosides level and the normalized intracellular level then were measured using LC-MS. Using wild type UGT74G1 and wild type UGT85C2, approximately 13.5 μM rubusoside was produced in total with a maximum normalized intracellular concentration of about 7 μM. In contrast, when wild type UGT74G1 and codon-optimized UGT85C2 were used, a maximum of 26 μM rubusoside was produced, or approximately double of what was produced using the wild type UGT85C2. Additionally, the maximum normalized intracellular concentration of rubusoside was 13 μM, again an approximate doubling of what was produced using wild type UGT85C2. […] Consequently, about 10 μM less total 19-SMG was measured for the codon-optimized UGT85C2.

O=c1ccn([C@@H]2O[C@H](COP(=O)(O)OP(=O)(O)O)[C@@H](O)[C@H]2O)c(=O)[nH]1 [UDP]
RebD production in presence of potential inhibitor (EUGT11): less than 7 μM

B1: UGT76G1: S. rebaudiana UGT, SEQ ID NO:7 (protein, listed as Stevia rebaudiana)
chain: MENKTETTVRRRRRIILFPVPFQGHINPILQLANVLYSKGFSITIFHTNFNKPKTSNYPHFTFRFILDNDPQDERISNLPTHGPLAGMRIPIINEHGADELRRELELLMLASEEDEEVSCLITDALWYFAQSVADSLNLRRLVLMTSSLFNFHAHVSLPQFDELGYLDPDDKTRLEEQASGFPMLKVKDIKSAYSNWQILKEILGKMIKQTKASSGVIWNSFKELEESELETVIREIPAPSFLIPLPKHLTASSSSLLDHDRTVFQWLDQQPPSSVLYVSFGSTSEVDEKDFLEIARGLVDSKQSFLWVVRPGFVKGSTWVEPLPDGFLGERGRIVKWVPQQEVLAHGAIGAFWTHSGWNSTLESVCEGVPMIFSDFGLDQPLNARYMSDVLKVGVYLENGWERGEIANAIRRVMVDEEGEYIRQNARVLKQKADVSLMKGGSSYESLESLVSYISSL
denaturation temperature TD [1]: 86 °C | activity of GeneArt lysate as a percentage of the wild-type enzyme [2]: 170%

B2: UGT91D2e: UGT91D2e polypeptide from Stevia rebaudiana, SEQ ID NO:5 (protein, listed as Stevia rebaudiana)
chain: MATSDSIVDDRKQLHVATFPWLAFGHILPYLQLSKLIAEKGHKVSFLSTTRNIQRLSSHISPLINVVQLTLPRVQELPEDAEATTDVHPEDIPYLKKASDGLQPEVTRFLEQHSPDWIIYDYTHYWLPSIAASLGISRAHFSVTTPWAIAYMGPSADAMINGSDGRTTVEDLTTPPKWFPFPTKVCWRKHDLARLVPYKAPGISDGYRMGLVLKGSDCLLSKCYHEFGTQWLPLLETLHQVPVVPVGLLPPEIPGDEKDETWVSIKKWLDGKQKGSVVYVALGSEVLVSQTEVVELALGLELSGLPFVWAYRKPKGPAKSDSVELPDGFVERTRDRGLVWTSWAPQLRILSHESVCGFLTHCGSGSIVEGLMFGHPLIMLPIFGDQPLNARLLEDKQVGIEIPRNEEDGCLTKESVARSLRSVVVEKEGEIYKANARELSKIYNDTKVEKEYVSQFVDYLEKNARAVAIDHES
amount of RebD produced when RebA was used as the feedstock [3]: trace amount | use of steviol as a substrate [4]: not able to use steviol as a substrate | amount of compound 3 (RebE) produced from rubusoside [5]: trace amount | stevioside formed by lysates [6]: approximately 0.5 μM | RebD formed by lysates [7]: ~1 µM | activity of GeneArt lysate as a percentage of the wild-type enzyme [2]: 130%

B3: UGT85C2: S. rebaudiana UGT, SEQ ID NO:3 (protein, listed as Stevia rebaudiana)
chain: MDAMATTEKKPHVIFIPFPAQSHIKAMLKLAQLLHHKGLQITFVNTDFIHNQFLESSGPHCLDGAPGFRFETIPDGVSHSPEASIPIRESLLRSIETNFLDRFIDLVTKLPDPPTCIISDGFLSVFTIDAAKKLGIPVMMYWTLAACGFMGFYHIHSLIEKGFAPLKDASYLTNGYLDTVIDWVPGMEGIRLKDFPLDWSTDLNDKVLMFTTEAPQRSHKVSHHIFHTFDELEPSIIKTLSLRYNHIYTIGPLQLLLDQIPEEKKQTGITSLHGYSLVKEEPECFQWLQSKEPNSVVYVNFGSTTVMSLEDMTEFGWGLANSNHYFLWIIRSNLVIGENAVLPPELEEHIKKRGFIASWCSQEKVLKHPSVGGFLTHCGWGSTIESLSAGVPMICWPYSWDQLTNCRYICKEWEVGLEMGTKVKRDEVKRLVQELMGEGGHKMRNKAKDWKEKARIAIAPNGSSSLNIDKMVKEITVLARN
denaturation temperature TD [1]: 86 °C | activity of GeneArt lysate as a percentage of the wild-type enzyme [8]: 340% | maximum intracellular concentration of 19-SMG [9]: 35 µM | maximum normalized intracellular concentration of rubusoside [9]: about 7 μM | rubusoside produced in total [9]: approximately 13.5 μM
